Assay results reported in PMC6687201, “Atg11 tethers Atg9 vesicles to initiate selective autophagy” (PLoS Biology, 2019).

T1: myc-tagged full length Atg11 (S. cerevisiae, UniProt Q12527 1-1178)
T1 construct: Atg11, scaffolding protein of selective autophagy, yeast; also called Atg11-myc; myc-Atg11; source: yeast cells expressing myc-tagged Atg11, in lysate
T1 sequence (looked up): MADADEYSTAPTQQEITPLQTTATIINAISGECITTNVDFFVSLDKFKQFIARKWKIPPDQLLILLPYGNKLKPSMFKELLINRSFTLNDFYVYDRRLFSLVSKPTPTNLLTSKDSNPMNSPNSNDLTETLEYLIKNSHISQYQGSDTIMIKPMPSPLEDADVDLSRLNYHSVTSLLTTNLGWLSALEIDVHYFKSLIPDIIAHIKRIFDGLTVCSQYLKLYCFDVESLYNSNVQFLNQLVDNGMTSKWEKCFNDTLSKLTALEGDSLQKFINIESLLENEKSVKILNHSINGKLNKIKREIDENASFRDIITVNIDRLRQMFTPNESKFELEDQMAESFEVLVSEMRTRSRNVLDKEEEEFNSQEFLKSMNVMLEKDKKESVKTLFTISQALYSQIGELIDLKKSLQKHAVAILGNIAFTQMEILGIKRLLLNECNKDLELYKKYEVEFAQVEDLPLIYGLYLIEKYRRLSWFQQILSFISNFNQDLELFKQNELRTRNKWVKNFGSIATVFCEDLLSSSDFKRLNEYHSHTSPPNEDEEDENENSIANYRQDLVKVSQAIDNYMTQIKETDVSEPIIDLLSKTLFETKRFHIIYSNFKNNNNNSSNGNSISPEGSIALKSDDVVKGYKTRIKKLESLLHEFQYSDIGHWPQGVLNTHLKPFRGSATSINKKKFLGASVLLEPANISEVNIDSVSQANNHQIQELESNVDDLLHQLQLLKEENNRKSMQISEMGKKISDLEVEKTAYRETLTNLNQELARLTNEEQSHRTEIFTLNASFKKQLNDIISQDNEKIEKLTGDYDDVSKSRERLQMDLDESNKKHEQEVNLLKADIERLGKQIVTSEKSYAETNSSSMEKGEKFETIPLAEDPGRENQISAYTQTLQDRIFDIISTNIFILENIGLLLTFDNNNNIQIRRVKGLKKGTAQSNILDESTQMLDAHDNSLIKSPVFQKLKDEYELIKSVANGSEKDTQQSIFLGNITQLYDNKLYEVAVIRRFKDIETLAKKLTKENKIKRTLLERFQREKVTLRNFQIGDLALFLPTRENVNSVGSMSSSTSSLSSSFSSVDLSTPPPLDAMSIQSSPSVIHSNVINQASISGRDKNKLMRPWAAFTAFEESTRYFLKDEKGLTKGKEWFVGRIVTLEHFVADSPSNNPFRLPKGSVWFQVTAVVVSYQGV


Assays:
[1] = biological target: the molecule itself; experiment: SEC; purified Atg11^ΔC on a Superose 6 column
[2] = biological target: T1, myc-tagged full length Atg11; experiment: co-IP; IP of myc-tagged Atg11 (anti-myc, Protein A magnetic beads), co-IP of HA-tagged Atg9; lysates of WT, atg13Δ, atg17Δ, atg29Δ and atg31Δ cells, log phase and starved; 25 mM Tris-HCl pH 7.2, 150 mM NaCl, 0.2% NP-40; conditions: partners not purified

Binder	stoichiometry N [1]	fold binding in atg17Δ against wild-type cells, upon starvation [2] [fold]
recombinant purified Atg11^ΔC (residues 1-667) (domain or fragment, yeast, UniProt Q12527 1-667, looked up, Atg11, yeast, N-terminal fragment, residues 1-667; expressed from pCoofy37-Atg11^ΔC; molecular weight 78.2 kDa; Made from the same vector as full-length Atg11, so it may also carry a C-terminal His6 tag and an N-terminal Gly-Pro; also called purified Atg17-like domain of Atg11; source: E. coli BL21 (DE3), coexpressed with chaperones from pG-KJE8, purified) MADADEYSTAPTQQEITPLQTTATIINAISGECITTNVDFFVSLDKFKQFIARKWKIPPDQLLILLPYGNKLKPSMFKELLINRSFTLNDFYVYDRRLFSLVSKPTPTNLLTSKDSNPMNSPNSNDLTETLEYLIKNSHISQYQGSDTIMIKPMPSPLEDADVDLSRLNYHSVTSLLTTNLGWLSALEIDVHYFKSLIPDIIAHIKRIFDGLTVCSQYLKLYCFDVESLYNSNVQFLNQLVDNGMTSKWEKCFNDTLSKLTALEGDSLQKFINIESLLENEKSVKILNHSINGKLNKIKREIDENASFRDIITVNIDRLRQMFTPNESKFELEDQMAESFEVLVSEMRTRSRNVLDKEEEEFNSQEFLKSMNVMLEKDKKESVKTLFTISQALYSQIGELIDLKKSLQKHAVAILGNIAFTQMEILGIKRLLLNECNKDLELYKKYEVEFAQVEDLPLIYGLYLIEKYRRLSWFQQILSFISNFNQDLELFKQNELRTRNKWVKNFGSIATVFCEDLLSSSDFKRLNEYHSHTSPPNEDEEDENENSIANYRQDLVKVSQAIDNYMTQIKETDVSEPIIDLLSKTLFETKRFHIIYSNFKNNNNNSSNGNSISPEGSIALKSDDVVKGYKTRIKKLESLLHEFQYSDIGHWPQGVLNTHLKPFRGSA	2	–
HA-tagged Atg9 (natural protein, S. cerevisiae, UniProt Q12142 1-997, looked up, Atg9, transmembrane autophagy protein, yeast; also called HA-Atg9; source: yeast cells expressing HA-tagged Atg9, in lysate) MERDEYQLPNSHGKNTFLSRIFGLQSDEVNPSLNSQEMSNFPLPDIERGSSLLHSTNDSREDVDENDLRVPESDQGTSTEEEDEVDEEQVQAYAPQISDGLDGDHQLNSVTSKENVLETEKSNLERLVEGSTDDSVPKVGQLSSEEEEDNEFINNDGFDDDTPLFQKSKIHEFSSKKSNTIEDGKRPLFFRHILQNNRPQRDTQKLFTSSNAIHHDKDKSANNGPRNINGNQKHGTKYFGSATQPRFTGSPLNNTNRFTKLFPLRKPNLLSNISVLNNTPEDRINTLSVKERALWKWANVENLDIFLQDVYNYYLGNGFYCIILEKILNICTLLFVVFVSTYMGHCVDYSKLPTSHRVSDIIIDKCYSNSITGFTKFFLWMFYFFVILKIVQLYFDVQKLSELQNFYKYLLNISDDELQTLPWQNVIQQLMYLKDQNAMTANVVEVKAKNRIDAHDVANRIMRRENYLIALYNSDILNLSLPIPLFRTNVLTKTLEWNINLCVMGFVFNESGFIKQSILKPSQREFTREELQKRFMLAGFLNIILAPFLVTYFVLLYFFRYFNEYKTSPGSIGARQYTPIAEWKFREYNELYHIFKKRISLSTTLANKYVDQFPKEKTNLFLKFVSFICGSFVAILAFLTVFDPENFLNFEITSDRSVIFYITILGAIWSVSRNTITQEYHVFDPEETLKELYEYTHYLPKEWEGRYHKEEIKLEFCKLYNLRIVILLRELTSLMITPFVLWFSLPSSAGRIVDFFRENSEYVDGLGYVCKYAMFNMKNIDGEDTHSMDEDSLTKKIAVNGSHTLNSKRRSKFTAEDHSDKDLANNKMLQSYVYFMDDYSNSENLTGKYQLPAKKGYPNNEGDSFLNNKYSWRKQFQPGQKPELFRIGKHALGPGHNISPAIYSTRNPGKNWDNNNNGDDIKNGTNNATAKNDDNNGNNDHEYVLTESFLDSGAFPNHDVIDHNKMLNSNYNGNGILNKGGVLGLVKEYYKKSDVGR	–	4.1
